Measurements from US20260232734A1 (published 2026).

Legend:
[1] = target: T1, KRAS G12D peptide on HLA-A*11:01 (human); assay: killing
T1 peptide: VVVGADGVGK

[2] = target: T2, KRAS G12D peptide on HLA-A*11:01 (human); assay: killing
T2 peptide: VVGADGVGK

[3] = target: T3, KRAS wild type peptide on HLA-A*11:01 (human); assay: killing
T3 peptide: VVVGAGGVGK

[4] = target: T4, KRAS wild type peptide on HLA-A*11:01 (human); assay: killing
T4 peptide: VVGAGGVGK

[5] = target: T3, KRAS wild type peptide on HLA-A*11:01; assay: activation reporter or marker
[6] = target: T1, KRAS G12D peptide on HLA-A*11:01; assay: cytokine release
[7] = target: T2, KRAS G12D peptide on HLA-A*11:01; assay: cytokine release
[8] = target: T1, KRAS G12D peptide on HLA-A*11:01; assay: activation reporter or marker
[9] = target: KRAS G12D neoantigen endogenously presented by HLA A*11:01 on KRAS-p.G12D tumor or transfected cell lines (human); assay: cell-based or functional assay

B1: EE209_2 TCR (TCR, V domains shown)
Valpha: ILNVEQSPQSLHVQEGDSTNFTCSFPSSNFYALHWYRWETAKSPEALFVMTLNGDEKKKGRISATLNTKEGYSYLYIKGSQPEDSATYLCAFLPGYSTLTFGKGTMLLVSP
Vbeta: DAGITQSPRYKITETGRQVTLMCHQTWSHSYMFWYRQDLGHGLRLIYYSAAADITDKGEVPDGYVVSRSKTENFPLTLESATRSQTSVYFCASSVGRGGTEAFFGQGTRLTVV
binding result [1]: recognises
binding result [2]: recognises
binding result [3]: no recognition
binding result [4]: no recognition

B2: EE184_KRAS_8a (TCR, V domains shown)
Valpha: AQTVTQSQPEMSVQEAETVTLSCTYDTSESDYYLFWYKQPPSRQMILVIRQEAYKQQNATENRFSVNFQKAAKSFSLKISDSQLGDAAMYFCAYKKYNDMRFGAGTRLTVKP
Vbeta: DGGITQSPKYLFRKEGQNVTLSCEQNLNHDAMYWYRQDPGQGLRLIYYSQIVNDFQKGDIAEGYSVSREKKESFPLTVTSAQKNPTAFYLCASSTGAGAFRTEAFFGQGTRLTVV
binding result [1]: recognises
binding result [2]: recognises
binding result [5]: no recognition

B3: PD6_KRASmut_22 (TCR, V domains shown)
Valpha: AQTVTQSQPEMSVQEAETVTLSCTYDTSESDYYLFWYKQPPSRQMILVIRQEAYKQQNATENRFSVNFQKAAKSFSLKISDSQLGDAAMYFCAYYSGGGADGLTFGKGTHLIIQP
Vbeta: SAVISQKPSRDICQRGTSLTIQCQVDSQVTMMFWYRQQPGQSLTLIATANQGSEATYESGFVIDKFPISRPNLTFSTLTVSNMSPEDSSIYLCSVTWAGGWSYGYTFGSGTRLTVV
binding result [6]: recognises
binding result [7]: recognises

B4: EE208_KRAS_1 (TCR, V domains shown)
Valpha: GNSVTQMEGPVTLSEEAFLTINCTYTATGYPSLFWYVQYPGEGLQLLLKATKADDKGSNKGFEATYRKETTSFHLEKGSVQVSDSAVYFCALSDGAGGFKTIFGAGTRLFVKA
Vbeta: EADIYQTPRYLVIGTGKKITLECSQTMGHDKMYWYQQDPGMELHLIHYSYGVNSTEKGDLSSESTVSRIRTEHFPLTLESARPSHTSQYLCASSESLYNEQFFGPGTRLTVL
binding result [8]: recognises
binding result [5]: no recognition

B5: EE209_2 TCR (SEQ ID NOs: 12 and 13; beta chain using TRBC2-201) (TCR)
TCR alpha: ILNVEQSPQSLHVQEGDSTNFTCSFPSSNFYALHWYRWETAKSPEALFVMTLNGDEKKKGRISATLNTKEGYSYLYIKGSQPEDSATYLCAFLPGYSTLTFGKGTMLLVSPDIQNPDPAVYQLRDSKSSDKSVCLFTDFDSQTNVSQSKDSDVYITDKTVLDMRSMDFKSNSAVAWSNKSDFACANAFNNSIIPEDTFFPSPESSCDVKLVEKSFETDTNLNFQNLSVIGFRILLLKVAGFNLLMTLRLWSS
TCR beta: DAGITQSPRYKITETGRQVTLMCHQTWSHSYMFWYRQDLGHGLRLIYYSAAADITDKGEVPDGYVVSRSKTENFPLTLESATRSQTSVYFCASSVGRGGTEAFFGQGTRLTVVEDLKNVFPPKVAVFEPSEAEISHTQKATLVCLATGFYPDHVELSWWVNGKEVHSGVSTDPQPLKEQPALNDSRYCLSSRLRVSATFWQNPRNHFRCQVQFYGLSENDEWTQDRAKPVTQIVSAEAWGRADCGFTSESYQQGVLSATILYEILLGKATLYAVLVSALVLMAMVKRKDSRG
CD137 upregulation [9]: 7 of 7 lines
IFNg production [9]: 5 of 7 lines
granzyme B production [9]: 6 of 7 lines
killing activity (impedance assay) [9]: 5 of 7 lines
